Experimental data published in article PMC12311017.

Biological target: USP1/UAF1 (USP1 res. 21-785, G670A + G671A, with UAF1 res. 9-677) (UniProt O94782)
Test: global kinetic model

Sequence of UniProt O94782 (O94782 21-785 G670A/G671A, chain 1 of 2): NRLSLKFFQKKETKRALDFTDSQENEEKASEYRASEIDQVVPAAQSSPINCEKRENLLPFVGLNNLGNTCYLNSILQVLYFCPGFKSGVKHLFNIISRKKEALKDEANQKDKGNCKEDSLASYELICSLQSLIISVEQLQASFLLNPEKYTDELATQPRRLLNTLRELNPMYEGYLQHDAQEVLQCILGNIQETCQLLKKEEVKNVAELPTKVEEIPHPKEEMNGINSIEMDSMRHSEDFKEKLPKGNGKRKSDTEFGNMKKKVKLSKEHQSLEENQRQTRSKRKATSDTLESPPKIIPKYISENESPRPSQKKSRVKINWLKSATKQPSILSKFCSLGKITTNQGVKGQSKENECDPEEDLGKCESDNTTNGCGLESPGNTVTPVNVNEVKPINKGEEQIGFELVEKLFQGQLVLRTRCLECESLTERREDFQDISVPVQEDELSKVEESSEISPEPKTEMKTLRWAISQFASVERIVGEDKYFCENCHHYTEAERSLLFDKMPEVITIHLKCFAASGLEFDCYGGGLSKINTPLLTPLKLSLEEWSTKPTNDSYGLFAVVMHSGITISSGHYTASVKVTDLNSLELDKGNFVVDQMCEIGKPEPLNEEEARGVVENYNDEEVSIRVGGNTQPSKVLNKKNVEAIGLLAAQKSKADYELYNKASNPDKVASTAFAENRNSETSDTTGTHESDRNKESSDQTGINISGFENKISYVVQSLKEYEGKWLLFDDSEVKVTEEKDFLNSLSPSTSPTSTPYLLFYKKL
Sequence of UniProt O94782 (Q8TAF3 9-677, chain 2 of 2, further chain): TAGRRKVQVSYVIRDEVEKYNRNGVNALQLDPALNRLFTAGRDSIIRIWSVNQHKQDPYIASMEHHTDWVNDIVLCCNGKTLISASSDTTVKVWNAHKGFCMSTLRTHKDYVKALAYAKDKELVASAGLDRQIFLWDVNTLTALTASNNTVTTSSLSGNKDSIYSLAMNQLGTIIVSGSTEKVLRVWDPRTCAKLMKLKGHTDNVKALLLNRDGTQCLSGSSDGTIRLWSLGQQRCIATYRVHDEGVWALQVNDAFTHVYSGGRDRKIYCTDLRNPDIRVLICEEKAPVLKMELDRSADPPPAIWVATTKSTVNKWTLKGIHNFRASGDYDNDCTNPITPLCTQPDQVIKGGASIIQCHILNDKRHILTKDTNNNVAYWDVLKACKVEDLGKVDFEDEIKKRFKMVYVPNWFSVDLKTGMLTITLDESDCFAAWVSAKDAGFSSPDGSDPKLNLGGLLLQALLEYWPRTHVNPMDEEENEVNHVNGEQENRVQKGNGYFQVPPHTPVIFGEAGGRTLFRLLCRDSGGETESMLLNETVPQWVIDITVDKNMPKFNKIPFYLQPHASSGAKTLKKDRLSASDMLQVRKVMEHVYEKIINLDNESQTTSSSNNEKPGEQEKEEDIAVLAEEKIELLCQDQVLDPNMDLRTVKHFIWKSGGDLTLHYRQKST

- koff: 1240 s⁻¹
Substance: K63-linked diubiquitinated PCNA (from UniProt P12004 1-261; P0CG47 1-76; P0CG47 1-76) (complex)
